Laboratory results: publication PMC314469, “Protein Interaction Networks by Proteome Peptide Scanning” (PLoS Biology, 2004)

T1: amphyphisin SH3 (AMPH_HUMAN), P49418
T1 chain: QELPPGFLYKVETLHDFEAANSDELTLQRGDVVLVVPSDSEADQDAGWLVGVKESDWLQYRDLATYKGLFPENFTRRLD

B1: Q9UPV7 127-140 (peptide)
chain: TPPAFIRPTRKLDD
B2: Q9ULT1 709-722 (peptide)
chain: TPPDPPRPKRRSHS
B3: Q8WV92 138-151 (peptide)
chain: SEMLIKRPSKVKTI
B4: Q9H462 843-857 (peptide)
chain: TPPIPSKPPGGFGK
B5: Q9H0X6 10-23 (peptide)
chain: TPPLPRRPRKGSSE
B6: Q9BR39 363-376 (peptide)
chain: TPPQPKRPRPGVSK
B7: Q9BUY9 649-662 (peptide)
chain: TPRGPRRPSGPAEL
B8: Q9BXX2 182-195 (peptide)
chain: TPRKILRPTKETSE
B9: Q9Y6C2 143-156 (peptide)
chain: TPRPLARPARPNLS
B10: Q14068 72-85 (peptide)
chain: TPSELERPSRMVSR
B11: Q9HD71 354-368 (peptide)
chain: TPTVPLKPPPPLTL
B12: Q9GZM7 384-397 (peptide)
chain: TPVSLGRPERYRRH
B13: Q9P2Z0 180-193 (peptide)
chain: TQISLKRPRHRSVG
B14: Q9BZW3 294-307 (peptide)
chain: SEVPLKRPRLDKNS
B15: Q9BZH3 389-402 (peptide)
chain: TQPVLKRPRHVHSH
B16: Q05707 817-831 (peptide)
chain: TQSLPTRPPTFPPT
B17: O14730 137-150 (peptide)
chain: TRDDPYRPAKPVPT
B18: Q13424 330-343 (peptide)
chain: TREALSRPARTAPL
B19: Q14333 228-241 (peptide)
chain: TRESIVRPSRRGGI
B20: Q96F98 1-15 (peptide)
chain: TRGRPTRPPTRPPT
B21: P82251 399-412 (peptide)
chain: TRKELERPIKVPVV
B22: Q16632 107-120 (peptide)
chain: TRKGPKRPQQPNPP
B23: P33121 45-59 (peptide)
chain: TRPKPLKPPSDLSM
B24: P10323 306-320 (peptide)
chain: TRPPPIRPPFSHPI
B25: P57073 407-420 (peptide)
chain: SFHSPRRPYASPLL
B26: P58840 117-131 (peptide)
chain: TRPPPIRPPFSHPL
B27: P34969 436-449 (peptide)
chain: TRRVLLRPEKRPPV
B28: Q9BQL3 97-111 (peptide)
chain: TRSPPPRPPPPAIN
B29: P30304 268-281 (peptide)
chain: TRSVLKRPERSQEE
B30: Q9ULT9 312-325 (peptide)
chain: TRTDPTRPIRTPVI
B31: Q96EK0 35-48 (peptide)
chain: TRVQPRRPTKGTHR
B32: Q9NP08 321-335 (peptide)
chain: TRWPPSRPPPPSPF
B33: P46778 10-23 (peptide)
chain: TRYMFSRPFRKHGV
B34: O60281 946-959 (peptide)
chain: TRYSPYRPYRSVHQ
B35: Q9UKN4 408-422 (peptide)
chain: TSAPPSRPPPPRAT
B36: Q9H9L7 3-16 (peptide)
chain: SGATLKRPMEFEAA
B37: Q13135 548-561 (peptide)
chain: TSAVLRRPQKGRLA
B38: Q9P2S2 1586-1599 (peptide)
chain: TSFEPRRPPPLRPG
B39: O15054 552-565 (peptide)
chain: TSGSFRRPESPRPR
B40: Q15477 130-143 (peptide)
chain: TSLSLRRPPGPASQ
B41: Q9UQD1 353-366 (peptide)
chain: TSPAPHRPPKRGPL
B42: Q9NRJ4 1113-1126 (peptide)
chain: AAVTLKRPPPYQWD

Legend:
[1] = target: T1, amphyphisin SH3 (AMPH_HUMAN), P49418; assay: SPOT array
[2] = target: endophilin SH3 (SH3G2_HUMAN), Q99962; assay: SPOT array

Binder	normalised SPOT signal, Boehringer light units (BLU); mean over the file's lines of this peptide [1]	normalised SPOT signal, Boehringer light units (BLU); mean over the file's lines of this peptide [2]
B1	173	146
B2	2330	202
B3	62.6	48.1
B4	41.7	995
B5	2900	2360
B6	343	253
B7	31.6	30
B8	173	30.9
B9	3020	610
B10	772	29
B11	39.3	904
B12	644	398
B13	6.5	27.6
B14	45.5	65.5
B15	46.6	60.5
B16	78.8	1190
B17	4.8	68.1
B18	440	216
B19	1320	89.5
B20	913	8360
B21	0	324

Binder	normalised SPOT signal, Boehringer light units (BLU); mean over the file's lines of this peptide [1]	normalised SPOT signal, Boehringer light units (BLU); mean over the file's lines of this peptide [2]
B22	46.7	2280
B23	90.5	451
B24	804	10400
B25	71	1100
B26	567	8780
B27	177	123
B28	1400	13300
B29	89.1	54.1
B30	568	96.3
B31	38	138
B32	363	7730
B33	2180	534
B34	1000	913
B35	5540	14100
B36	31.6	0
B37	84.9	138
B38	32.4	210
B39	57.4	67.6
B40	33.9	26.8
B41	220	4010
B42	42.1	61.6
